In patent publication US20150231220A1 (GREEN CROSS, published 2015):

B1: β-Cellulin (ligand, human, UniProt P35070 32-111, looked up)
chain: DGNSTRSPETNGLLCGDPEENCAATTTQSKRKGHFSRCPKQYKHYCIKGRCRFVVAEQTPSCVCDEGYIGARCERVDLFY
notes: also called BTC; betacellulin
B2: Heparin-binding EGF-like growth factor (ligand, human, UniProt Q99075 63-148, looked up)
chain: DLQEADLDLLRVTLSSKPQALATPNKEEHGKRKKKGKGLGKKRDPCLRKYKDFCIHGECKYVKELRAPSCICHPGYHGERCHGLSL
notes: also called HB-EGF

Columns and labels:
[1] = target: EGFR coated on the plate (competitive binding test) (UniProt P00533); assay: competitive ELISA on plate-coated EGFR; competitor cetuximab at […]; antibody:ligand molar ratio 1:10^5; remaining antibody binding
[2] = target: EGFR coated on the plate (competitive binding test) (UniProt P00533); assay: competitive ELISA on plate-coated EGFR; competitor cetuximab at […]; antibody:ligand molar ratio 1:10^4; remaining antibody binding
[3] = target: EGFR coated on the plate (competitive binding test) (UniProt P00533); assay: competitive ELISA on plate-coated EGFR; competitor GC1118 at […]; antibody:ligand molar ratio 1:10^4; remaining antibody binding
[4] = target: EGFR coated on the plate (competitive binding test) (UniProt P00533); assay: competitive ELISA on plate-coated EGFR; competitor GC1118 at […]; antibody:ligand molar ratio 1:10^5; remaining antibody binding
[5] = target: T1, EGFR coated on the plate (competitive binding test) (UniProt P00533 25-645, limits assumed); assay: competitive ELISA on plate-coated EGFR; competitor GC1118 at 1.5 nM; antibody:ligand molar ratio 1:10^4; remaining antibody binding
[6] = target: T1, EGFR coated on the plate (competitive …); assay: competitive ELISA on plate-coated EGFR; competitor cetuximab at 1.5 nM; antibody:ligand molar ratio 1:10^4; remaining antibody binding
[7] = target: T1, EGFR coated on the plate (competitive …); assay: competitive ELISA on plate-coated EGFR; competitor GC1118 at 1.5 nM; antibody:ligand molar ratio 1:10^5; remaining antibody binding
[8] = target: T1, EGFR coated on the plate (competitive …); assay: competitive ELISA on plate-coated EGFR; competitor cetuximab at 1.5 nM; antibody:ligand molar ratio 1:10^5; remaining antibody binding

Row | Molecule | Antibody binding (%) [1] [%] | Antibody binding (%) [2] [%] | Antibody binding (%) [3] [%] | Antibody binding (%) [4] [%] | Antibody binding (%) [5] [%] | Antibody binding (%) [6] [%] | Antibody binding (%) [7] [%] | Antibody binding (%) [8] [%]
1 | Amphiregulin (from UniProt P15514 101-198) (ligand) | 99.9 | 96.6 | 99.6 | 99.9 |  |  |  | 
2 | B1 |  |  |  |  | 40.4 | 80.2 | 18.9 | 51.1
3 | B2 |  |  |  |  | 65.1 | 96.2 | 31.2 | 76.1
